Earlier results in article PMC7411019.
pKd: −log10 of the molar value.

Molecular target: cTnI-binding peptide

Chain of Cardiac troponin I 114-144 (P19429 114-144): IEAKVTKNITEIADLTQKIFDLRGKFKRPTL

## Cardiac troponin I 114-144 (from UniProt P19429)
  pKd: 9.57
